According to US20230398116A1, “Agent for reversing resistance to anticancer drugs” (Y'S AC CO., LTD., priority 2020, published 2023):
Entries after “also recorded” stand apart in the source; their conditions may differ.

Experiments:
E0771 cells [1] = assay: MTT assay / cell proliferation (confluence) assay, E0771; format: cell-based, mouse
Experimental: (§1) Human and mouse breast cancer cells (1×10^4) were cultured in 10% FCS containing RPMI1640 medium on a 96-well flat bottom plate (Corning, Tewksbury, MA) at 37° C. for 24 hours, and then stimulated with IL-26 for 48 hours in the presence or absence of EGFR-TKI (gefitinib or erlotinib) at various concentrations, a signal inhibitor, and a neutralizing antibody. HUVECs were seeded in a 96-well flat bottom plate at 5×10^3 cells/well in a 2% FBS-containing EGM medium in which growth factors were reduced by half, and cultured at 37° C. for 12 hours. Thereafter, the medium was aspirated, and a recombinant human IL-26 dimer was adjusted to a final concentration of 10 ng/mL in a 2% FBS-containing EGM medium containing no growth factors, and added to the cells. The stimulation was started in the presence or absence of control human IgG and anti-human IL-26 antibodies, and the cells were cultured for 48 hours. Thereafter, a concentration of 20 μl or 1/10 of a 5 mg/ml MTT solution (Tetrazolium monosodium salt, WST-8) was added to each well, and the plate was allowed to stand for 1 hour. The absorbance at 450 nm/595 nm was measured using Microplate Reader (Bio-Rad, Hercules, CA) and data was analyzed with Microplate Manager 6 software (Bio-Rad).
(§2) Human and mouse breast cancer cells (1×10^4) were cultured in RPMI1640 medium containing 10% FCS for 24 hours at 37° C. on a 96-well flat bottom plate (Corning), and then stimulated with IL-26 (30 ng/ml) in the presence or absence of various concentrations of gefitinib and a neutralizing antibody. Cell proliferation was measured as cell confluence using IncuCyte ZOOM (Essen Bioscience, Ann Arbor, MI).

HCC70 cells = assay: MTT assay / cell proliferation (confluence) assay, HCC70; format: cell-based, human
Experimental: as §1, §2

[2] = test system: endoplasmic reticulum stress signaling (DDIT3, ATF3, ATF4) in HCC70 cells; assay: qRT-PCR and immunofluorescence of endoplasmic reticulum stress markers in HCC70 cells; format: cell-based, human
Experimental: (§3) E0771 and HCC70 cells (1×10^5) were cultured for 24 hours in RPMI1640 medium with 10% FCS on Lab-Tek chamber slides (Thermo Fisher Scientific). The cultured cells were stimulated with Alexa Fluor 488 labeled IL-26 (30 ng/ml) in the presence or absence of recombinant human and mouse EphA3-Ig for 1 hour. HCC70 cells were stimulated with IL-26 (30 ng/ml) in the presence or absence of gefitinib (40 μM), a signal inhibitor, and a neutralizing antibody for 24 hours. Subcutaneous tumor samples obtained from mice were fixed in 4% paraformaldehyde (Thermo Fisher Scientific) and embedded in OCT compound (Tissue-Tek (registered trademark), Sakura Finetek, Japan). Cells and slides were immunostained with each antibody and observed using a Zeiss inverted microscope and Axiovision 2.0 program (Carl Zeiss, Germany). The fluorescence intensity was quantified with Image-J software (NIH). The images were captured using a 100×400× objective.
(§4) E0771 cells, HCC70 cells, and MDA-MB-468 cells were cultured in RPMI1640 medium containing 10% FCS on a 6-well plate (Corning), and then stimulated with IL-26 (30 ng/ml) in the presence or absence of gefitinib for 3, 6, or 12 hours. The cells were harvested and total RNA was extracted. cDNA was synthesized using PrimeScript II first-strand cDNA synthesis kit (TaKaRa Bio, Japan) and oligo (dT) primers. The mRNA levels were measured by 7500 System SDS software (Applied Biosystems, Foster City, CA) and normalized to hypoxanthine phosphoribosyltransferase expression levels.

[3] = test system: endoplasmic reticulum stress signaling in MDA-MB-468 cells; assay: qRT-PCR of endoplasmic reticulum stress markers in MDA-MB-468 cells; format: cell-based, human; details: 6 hours
Experimental: as §4

E0771 cells [4] = assay: In vivo TNBC transplantation model (E0771 in hIL-26Tg or control mice); design: species or system mouse
Experimental: E0771 cells (5×10^5) with 50% Matrigel were injected subcutaneously into the flank of hIL-26Tg mice or control mice. Tumor measurements were performed using caliper and volume was calculated using an equation (v=width×width×(length/2)). gefitinib was suspended in H2O with 1% tween (registered trademark) 80 for oral administration (50 mg/kg). Ten days after injection of E0771 cells, the oral administration once a day was performed 5 times a week. As a control, 1% tween (registered trademark) 80 containing H2O without Gefiinib was administered. The monoclonal antibody (mAb) treatment was performed by diluting anti-IL-26 mAb (clone 69-10) (Hatano R et al., MAbs (2019) 1-15, and JP 2009-99492 A) or mouse IgG1 isotype control to 1 mg/ml with sterile PBS, and by intraperitoneal injection of 200 μl (200 μg) once a day twice a week starting on day 10 after E0771 cell injection. Mice were sacrificed until subcutaneous tumor size reached 1600 mm^3. E0771 and HCC70 cells (1×10^5) were cultured for 24 hours in RPMI1640 medium with 10% FCS on Lab-Tek chamber slides (Thermo Fisher Scientific). […] Subcutaneous tumor samples obtained from mice were fixed in 4% paraformaldehyde (Thermo Fisher Scientific) and embedded in OCT compound (Tissue-Tek (registered trademark), Sakura Finetek, Japan). Cells and slides were immunostained with each antibody and observed using a Zeiss inverted microscope and Axiovision 2.0 program (Carl Zeiss, Germany). The fluorescence intensity was quantified with Image-J software (NIH). The images were captured using a 100×400× objective.

EphA3/IL-26 interaction = molecular target: T1, EphA3/IL-26 interaction (Homo sapiens, UniProt Q9NPH9); assay: Immunofluorescence of rhIL-26-Alexa 488 and cell surface EphA3 on E0771 cells; format: cell-based, mouse
T1 construct: purchased R&D Systems; host or cells: IL-26 was purchased; EphA3 is endogenous on E0771 cells
T1 sequence (Q9NPH9 22-171): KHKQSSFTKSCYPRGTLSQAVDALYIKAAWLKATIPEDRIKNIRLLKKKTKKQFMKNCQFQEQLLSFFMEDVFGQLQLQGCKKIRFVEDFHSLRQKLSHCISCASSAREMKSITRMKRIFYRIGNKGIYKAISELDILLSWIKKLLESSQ
Experimental: as §3

[5] = MDA-MB-468, IL-26 30 ng/ml, gefitinib 20 μM

In the case of `COc1cc2ncnc(Nc3ccc(F)c(Cl)c3)c2cc1OCCCN1CCOCC1` [gefitinib, Gefitinib, reference compound], the “cell proliferation under gefitinib treatment” value (E0771 cells [1]; E0771, 48 hours, FIGS. 2A to 2C) is reported as “suppressed”, the “cell proliferation under gefitinib treatment” value (HCC70 cells; HCC70, 48 hours, FIGS. 3A to 3C) is reported as “suppressed” and the “mRNA expression levels of IL-6, IL-8 and CXCL2, gefitinib treatment” value ([2]; HCC70, gefitinib 40 μM, 6 hours, FIG. 34) is reported as “significantly increased”. For the same molecule, the “expression of DDIT3 at the protein level, gefitinib treatment” value ([2]; HCC70, gefitinib 40 μM, 24 hours, immunocytochemical staining, FIG. 30) was “marked increase”, the “mRNA expression levels of DDIT3, ATF3 and ATF4, gefitinib treatment” value ([2]; HCC70, gefitinib 40 μM, FIG. 28) was “significantly increased” and the “mRNA expression levels of DDIT3, ATF3 and ATF4, gefitinib treatment” value ([3]; MDA-MB-468, gefitinib 20 μM, FIG. 29) was “significantly increased”. For the same molecule, the “mRNA expression levels of IL-6, IL-8 and CXCL2, gefitinib treatment” value ([3]; MDA-MB-468, gefitinib 20 μM, FIG. 34) was “significantly increased”, the “number of Ly6G+ granulocytes infiltrating TME” value (E0771 cells [4]; gefitinib-treated WT and hIL-26Tg mice compared to vehicle-treated, FIG. 40) was “significantly increased” and the “phosphorylation of AKT in tumor cells” value (E0771 cells [4]; gefitinib-treated WT mice, tumor resected 14 days after inoculation, FIG. 41) was “strongly suppressed”. For the same molecule, the “phosphorylation of JNK in tumor cells” value (E0771 cells [4]; gefitinib-treated WT mice, tumor resected 14 days after inoculation, FIG. 42) was “strongly suppressed”, the “tumor growth in hIL-26Tg mice” value (E0771 cells [4]; hIL-26Tg mice, gefitinib 50 mg/kg oral gavage, FIG. 35) was “tumor suppression by gefitinib was significantly inhibited” and the “tumor growth in control mice” value (E0771 cells [4]; littermate control (WT) mice, gefitinib 50 mg/kg oral gavage once a day, five times a week, FIG. 35) was “suppressed”.

B1: IL-26: recombinant human IL-26 dimers for cell stimulation, R&D Systems (protein)
chain: KHKQSSFTKSCYPRGTLSQAVDALYIKAAWLKATIPEDRIKNIRLLKKKTKKQFMKNCQFQEQLLSFFMEDVFGQLQLQGCKKIRFVEDFHSLRQKLSHCISCASSAREMKSITRMKRIFYRIGNKGIYKAISELDILLSWIKKLLESSQ
With B1 the “effect of exogenous IL-26 on inhibitory effect of erlotinib” value (E0771 cells [1]; E0771, IL-26 30 ng/ml, erlotinib 30 μM or 50 μM, 48 hours, MTT) was “inhibited the inhibitory effect of erlotinib on cell proliferation”, the “effect of exogenous IL-26 on gefitinib-induced suppression of cell proliferation” value (E0771 cells [1]; E0771, IL-26 with gefitinib, 48 hours) was “significantly inhibited the cell proliferation suppression induced by gefitinib; also recorded: significantly suppressed in a dose-dependent manner” and the “cell proliferation, IL-26 treatment alone” value (E0771 cells [1]; E0771, no gefitinib) was “did not affect cell proliferation”. The “effect of exogenous IL-26 on inhibitory effect of erlotinib” value (HCC70 cells; HCC70, IL-26 30 ng/ml, erlotinib 30 μM or 50 μM, 48 hours, MTT) was “inhibited the inhibitory effect of erlotinib on cell proliferation”, the “effect of exogenous IL-26 on gefitinib-induced suppression of cell proliferation” value (HCC70 cells; HCC70, IL-26 with gefitinib, 48 hours) was “significantly inhibited the cell proliferation suppression induced by gefitinib” and the “colocalization of exogenous IL-26 with cell surface EphA3” value (EphA3/IL-26 interaction; E0771, FIGS. 17 and 18) was “colocalized with the cell surface EphA3”. The “mRNA expression levels of IL-6, IL-8 and CXCL2, IL-26 with gefitinib” value ([2]; HCC70, IL-26 30 ng/ml, gefitinib 40 μM, 6 hours, FIG. 34) was “significantly reduced”, the “expression of DDIT3 at the protein level, IL-26 with gefitinib” value ([2]; HCC70, IL-26 30 ng/ml, gefitinib 40 μM, 24 hours, FIG. 30) was “significant decrease” and the “mRNA expression levels of DDIT3, ATF3 and ATF4, IL-26 with gefitinib” value ([2]; HCC70, IL-26 30 ng/ml, gefitinib 40 μM, FIG. 28) was “clearly reduced”. The “mRNA expression levels of DDIT3, ATF3 and ATF4, IL-26 with gefitinib” value [3, 5] was “significantly decreased” and the “mRNA expression levels of IL-6, IL-8 and CXCL2, IL-26 with gefitinib” value [3, 5] was “significantly reduced”.

B2: 69-10: mouse anti-human IL-26 monoclonal antibody, clone 69-10, from deposited hybridoma (antibody, V domains shown)
VH: QVTLKESGPGILKPSQTLSLTCSFSGFSLSTSGMGVGWIRQPSGKGLEWLAHIWWDDDKYYNPSLKSQLTISKDTSRNQVFLKITSVDTADTATYYCVRGGITATHYYAMDYWGQGTSVTVSS
VL: DIQMTQSPASQSASLGESVTISCLASQTIGTWLSWYQQKPGKSPQLLIYAATSLADGVPSRFSGSGSGTKFSFKISSLQAEDFVSYYCQQLYSSPWTFGGGTKLEIK
In the case of B2, the “reversal of inhibitory effect of IL-26 on gefitinib-induced suppression of cell proliferation (MTT)” value (E0771 cells [1]; E0771, IL-26 30 ng/ml, gefitinib 20 μM, antibody 20 μg/ml, 48 hours, FIG. 5D) is reported as “reversed the inhibitory effect of IL-26 on gefitinib-induced suppression of cell proliferation”, the “reversal of effect of IL-26 on gefitinib-induced suppression of cell proliferation (percent confluence)” value (E0771 cells [1]; E0771, gefitinib 15 μM and IL-26, antibody 10 μg/ml (mixture 2.5 μg/ml each), FIG. 11) is reported as “reversed the effect of IL-26 on gefitinib-induced suppression of cell proliferation” and the “reversal of inhibitory effect of IL-26 on gefitinib-induced suppression of cell proliferation” value (HCC70 cells; HCC70, IL-26 30 ng/ml, gefitinib 40 μM, 48 hours, MTT, FIG. 59) is reported as “reversed the inhibitory effect of IL-26 on gefitinib-induced suppression of cell proliferation in an antibody dose-dependent manner”. The “inhibition of colocalization of IL-26 with EphA3 (EphA3/IL-26 interaction)” value (EphA3/IL-26 interaction; E0771, antibodies 10 μg/ml, FIGS. 19 and 20) was “significantly inhibited”, the “inhibition of the decrease in expression of DDIT3 at the protein level by IL-26 together with gefitinib” value ([2]; HCC70, 24 hours, antibodies 50 μg/ml, FIG. 32 lower) was “significantly inhibited” and the “inhibitory effect compared with anti-EphA3 pAb” value ([2]; HCC70 cells treated with gefitinib and IL-26) was “stronger than that of anti-EphA315 pAb”. For the same molecule, the “reversal of effect of IL-26 on gefitinib-induced DDIT3 expression and mitochondrial membrane depolarization” value ([2]; HCC70 cells treated with gefitinib and IL-26, FIGS. 32 and 33) was “reversed the effect of IL-26”, the “tumor growth, anti-IL-26 mAb and gefitinib” value (E0771 cells [4]; hIL-26Tg mice, clone 69-10 200 μg/dose i.p. twice a week with gefitinib, compared to gefitinib alone, FIG. 36) was “significantly reduced” and the “tumor growth, anti-IL-26 mAb alone” value (E0771 cells [4]; hIL-26Tg mice, not illustrated) was “no effect on tumor growth”.
